Drawing on paper PMC8518580, this text covers Kd and binding signal (% of WT 3'-UTR) for twelve substances.

As usually defined, the Kd is a measure of binding affinity in units of concentration.

The first series deals with NbeEF1A (eEF1A) (Nicotiana benthamiana). As to the kind of experiment: MST. As to conditions: EMSA: LightShift REMSA kit, 30 min, 25 °C, 5% native PAGE (buffer not given); MST: Monolith NT.115, RED-labelled NbeEF1A, labelling in PBS, temperature not …. For orientation: In EMSA bound probe runs differently from free probe, usually more slowly.
As for RNA2 3'-UTR dSL-3 (del3500-3503), the Kd worked out at 33.5 nM.

As to RNA2 3'-UTR dSL-4 (del3505-3509), the Kd was 113 nM.

With CWMV RNA2 (+) 3'-UTR, the equilibrium dissociation constant (Kd) was determined as 6.51 nM.

With RNA2 3'-UTR dSL-5 (del3532-3535), the equilibrium dissociation constant (Kd) was 36 nM.

Consider RNA2 3'-UTR dSL-2 (del3469-3471), for which the Kd was determined as 91.7 nM.

Regarding RNA2 3'-UTR dSL-6 (del3561-3565), the Kd is 998 nM.

Turning to RNA2 3'-UTR dSL-1 (del3419-3429), the Kd came out at 117 nM.

Another series has the same test system. The series can be described thus: MST. The following applies: EMSA: LightShift REMSA kit, 30 min, 25 °C, 5% native PAGE (buffer not given); MST: Monolith NT.115, RED-labelled NbeEF1A, labelling in PBS, temperature not …. This is another data set of the same source.
In the case of CWMV RNA2 (+) 3'-UTR, the dissociation constant Kd came to 12.5 nM.

As for RNA2 3'-UTR del3174-3406, the Kd came to 68.5 nM.

Regarding RNA2 3'-UTR del3407-3569, the equilibrium dissociation constant (Kd) was 997 nM.

For RNA1 3'-UTR del6988-7147, the dissociation constant Kd is 964 nM.

For the substance CWMV RNA1 (+) 3'-UTR, the dissociation constant Kd was 7.32 nM.

On to RNA1 3'-UTR del6730-6987, for which the Kd was determined as 67.7 nM.

The test system is the same in a further series. The series can be described thus: EMSA. As to conditions: EMSA: LightShift REMSA kit, 30 min, 25 °C, 5% native PAGE (buffer not given); MST: Monolith NT.115, RED-labelled NbeEF1A, labelling in PBS, temperature not ….
Turning to RNA2 3'-UTR dSL-6 (del3561-3565), the binding signal (% of WT 3'-UTR) was 6.
